Data taken from paper PMC9600267, “The Antibacterial Type VII Secretion System of Bacillus subtilis: Structure and Interactions of the Pseudokinase YukC/EssB” (mBio, 2022).

Target: the molecule itself
Assay: crystal structure; hanging-drop vapor diffusion at 4°C; 20 mg/mL YukC413 in 25 mM HEPES pH 8, 175 mM NaCl, 0.04% Cymal-6 with 0.1 M MgCl2, 50 mM HEPES pH 7.5, 15% PEG 2000; molecular replacement

B1: YukC413 (YukC lacking the last 38 residues), Strep-tagged (pRSF/yukC413.strep) (domain or fragment, Bacillus subtilis 168, UniProt P71070 1-413, looked up)
chain: MSGEQKSYLENQLEAVAEKTDAGYTFTFQREKIKLLDGLEANVIKDINPFFHKEIDVTDDEVIITIQPPSSYKAFRFMKAKDKKSKWQFAYQLVQAVQQHNLSRLNLIVAPENIVFDKGLTPYFLHYGVKESIPPYERDEERVWQELKAAAALAVDGAFAFEDYLKFNETLTFSAEAKAILDAESYDDLLELIQTHIDELEAKAKTYIHIPRKKWNIQRYIGLGLIVLLVPALIYSMYALFFAQPKHQAIVDSNRAFLNKQYSEVISTLSKYDAESLPESVQYQLATSYVEVENLGSAKTKNIENNLVTLQSDPQHFLYWIDYGRGEYKEAISIGRKLEYNDYIYFALAKYKQQLLSEDTNDEDIQKELDSVNSELEKAQKERQENKQSNSETSLVDTSEEQTQTDEEKQAEE
notes: YukC (EssB) of Bacillus subtilis 168 lacking the last 38 residues at the C terminus; In the model 384 (chain A) and 377 (chain B) residues are assigned; source: E. coli BL21(DE3); purified from Cymal-6-solubilized membranes (StrepTrap, Superdex 200) for crystallization; coexpressed with YukE.his and solubilized with Triton X-100 for copurification
- binding result: binds
